Results from US20130157953A1, “TREATMENT OF CARDIAC CONDITIONS” (Zealand Pharma A/S, priority 2010, published 2013).
Numbered stars: 1 amine (or outer) side, 2 acyl side, 3 side chain; on linkers, the order of the positions; unused ones are H or OH. Bridge positions count the residues as written; N and C are the ends. Square brackets hold non-standard residues; d marks the D form. Side chains are listed from the residue outwards. * marks the point of attachment. γGlu = O=C(O)[C@H](CCC(=O)[*:2])N[*:1]; Palmitoyl = CCCCCCCCCCCCCCCC(=O)*; Aib = CC(C)(N)C(=O)O

Assays:
[1] = target: human glucagon receptor (Glucagon-R) (human, UniProt P47871 26-477); test: cell-based or functional assay
[2] = target: human glucagon-like peptide 1 receptor (GLP-1R) (human, UniProt P43220 24-463); test: cell-based or functional assay

Sequence of human glucagon receptor (Glucagon-R) (P47871 26-477): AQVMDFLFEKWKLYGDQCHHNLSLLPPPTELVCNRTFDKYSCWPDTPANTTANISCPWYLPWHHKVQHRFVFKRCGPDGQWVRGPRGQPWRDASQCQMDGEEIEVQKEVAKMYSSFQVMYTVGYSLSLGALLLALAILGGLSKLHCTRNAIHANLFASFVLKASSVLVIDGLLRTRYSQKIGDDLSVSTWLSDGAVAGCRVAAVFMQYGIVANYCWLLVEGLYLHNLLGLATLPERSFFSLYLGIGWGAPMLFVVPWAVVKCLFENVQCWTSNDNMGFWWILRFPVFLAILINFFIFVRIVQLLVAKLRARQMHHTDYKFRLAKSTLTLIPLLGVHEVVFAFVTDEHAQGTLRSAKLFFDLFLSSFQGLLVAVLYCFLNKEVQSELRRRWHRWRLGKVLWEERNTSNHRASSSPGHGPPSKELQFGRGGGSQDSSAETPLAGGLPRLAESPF

B1: Compound 254 (peptide)
peptide: H-HSQGTFTSDYSRYLDSRRAQDFVWLLNK-NH2
EC50 (nM) GuR; cAMP content, HEK293 cells expressing the human glucagon receptor [1]: 0.2 nM
EC50 (nM) GLP-1R; cAMP content, HEK293 cells expressing human GLP-1R [2]: 0.2 nM

B2: Compound 251 (peptide)
peptide: H-HSQGTFTSDYSKYLDSRRAQDFVWLERA-NH2
EC50 (nM) GLP-1R; cAMP content, HEK293 cells expressing human GLP-1R [2]: 0.2 nM

B3: Compound 205 (peptide)
peptide: H-HSQGTFTSDYSKYLDSKAAHDFVEWLLK([γGlu-Palmitoyl])A-NH2
SMILES: CCCCCCCCCCCCCCCC(=O)N[C@@H](CCC(=O)NCCCC[C@H](NC(=O)[C@H](CC(C)C)NC(=O)[C@H](CC(C)C)NC(=O)[C@H](Cc1c[nH]c2ccccc12)NC(=O)[C@H](CCC(=O)O)NC(=O)[C@@H](NC(=O)[C@H](Cc1ccccc1)NC(=O)[C@H](CC(=O)O)NC(=O)[C@H](Cc1c[nH]cn1)NC(=O)[C@H](C)NC(=O)[C@H](C)NC(=O)[C@H](CCCCN)NC(=O)[C@H](CO)NC(=O)[C@H](CC(=O)O)NC(=O)[C@H](CC(C)C)NC(=O)[C@H](Cc1ccc(O)cc1)NC(=O)[C@H](CCCCN)NC(=O)[C@H](CO)NC(=O)[C@H](Cc1ccc(O)cc1)NC(=O)[C@H](CC(=O)O)NC(=O)[C@H](CO)NC(=O)[C@@H](NC(=O)[C@H](Cc1ccccc1)NC(=O)[C@@H](NC(=O)CNC(=O)[C@H](CCC(N)=O)NC(=O)[C@H](CO)NC(=O)[C@@H](N)Cc1c[nH]cn1)[C@@H](C)O)[C@@H](C)O)C(C)C)C(=O)N[C@@H](C)C(N)=O)C(=O)O
EC50 (nM) GLP-1R; cAMP content, HEK293 cells expressing human GLP-1R [2]: 0.09 nM

B4: Compound 215 (peptide)
peptide: H-H[Aib]QGTFTSDYSKYLDSK([3‑aminopropanoyl-Palmitoyl])AAHDFVEWLLSA-NH2
EC50 (nM) GuR; cAMP content, HEK293 cells expressing the human glucagon receptor [1]: 1.87 nM

B5: Compound 263 (peptide)
peptide: H-H[Aib]QGTFTSDYSKYLDEK([γGlu-Palmitoyl])RAKDFIEWLLSA-NH2
SMILES: CCCCCCCCCCCCCCCC(=O)N[C@@H](CCC(=O)NCCCC[C@H](NC(=O)[C@H](CCC(=O)O)NC(=O)[C@H](CC(=O)O)NC(=O)[C@H](CC(C)C)NC(=O)[C@H](Cc1ccc(O)cc1)NC(=O)[C@H](CCCCN)NC(=O)[C@H](CO)NC(=O)[C@H](Cc1ccc(O)cc1)NC(=O)[C@H](CC(=O)O)NC(=O)[C@H](CO)NC(=O)[C@@H](NC(=O)[C@H](Cc1ccccc1)NC(=O)[C@@H](NC(=O)CNC(=O)[C@H](CCC(N)=O)NC(=O)C(C)(C)NC(=O)[C@@H](N)Cc1c[nH]cn1)[C@@H](C)O)[C@@H](C)O)C(=O)N[C@@H](CCCNC(=N)N)C(=O)N[C@@H](C)C(=O)N[C@@H](CCCCN)C(=O)N[C@@H](CC(=O)O)C(=O)N[C@@H](Cc1ccccc1)C(=O)N[C@H](C(=O)N[C@@H](CCC(=O)O)C(=O)N[C@@H](Cc1c[nH]c2ccccc12)C(=O)N[C@@H](CC(C)C)C(=O)N[C@@H](CC(C)C)C(=O)N[C@@H](CO)C(=O)N[C@@H](C)C(N)=O)[C@@H](C)CC)C(=O)O
EC50 (nM) GuR; cAMP content, HEK293 cells expressing the human glucagon receptor [1]: 0.16 nM

B6: Compound 247 (peptide)
peptide: H-HSQGTFTSDYSKYLDSRYAQDFVWLMNT-NH2
EC50 (nM) GLP-1R; cAMP content, HEK293 cells expressing human GLP-1R [2]: 0.3 nM

B7: Compound 248 (peptide)
peptide: H-HSQGTFTSDYSKYLDSRRAQDFVWLESA-NH2
EC50 (nM) GLP-1R; cAMP content, HEK293 cells expressing human GLP-1R [2]: 0.5 nM

B8: Compound 245 (peptide)
peptide: H-HSQGTFTSDYSKYLDSRSAQDFVWLMNT-NH2
EC50 (nM) GuR; cAMP content, HEK293 cells expressing the human glucagon receptor [1]: 0.05 nM

B9: Compound 257 (peptide)
peptide: H-HSQGTFTSDYSKYLDKRRAEDFVWLMNT-NH2
modifications: lactam 16-20
SMILES: CSCC[C@H](NC(=O)[C@H](CC(C)C)NC(=O)[C@H](Cc1c[nH]c2ccccc12)NC(=O)[C@@H](NC(=O)[C@H](Cc1ccccc1)NC(=O)[C@H](CC(=O)O)NC(=O)[C@@H]1CCC(=O)NCCCC[C@H](NC(=O)[C@H](CC(=O)O)NC(=O)[C@H](CC(C)C)NC(=O)[C@H](Cc2ccc(O)cc2)NC(=O)[C@H](CCCCN)NC(=O)[C@H](CO)NC(=O)[C@H](Cc2ccc(O)cc2)NC(=O)[C@H](CC(=O)O)NC(=O)[C@H](CO)NC(=O)[C@@H](NC(=O)[C@H](Cc2ccccc2)NC(=O)[C@@H](NC(=O)CNC(=O)[C@H](CCC(N)=O)NC(=O)[C@H](CO)NC(=O)[C@@H](N)Cc2c[nH]cn2)[C@@H](C)O)[C@@H](C)O)C(=O)N[C@@H](CCCNC(=N)N)C(=O)N[C@@H](CCCNC(=N)N)C(=O)N[C@@H](C)C(=O)N1)C(C)C)C(=O)N[C@@H](CC(N)=O)C(=O)N[C@H](C(N)=O)[C@@H](C)O
EC50 (nM) GuR; cAMP content, HEK293 cells expressing the human glucagon receptor [1]: 0.09 nM

B10: Compound 204 (peptide)
peptide: H-HSQGTFTSDYSKYLDSKAAK([γGlu-Palmitoyl])DFVEWLLRA-NH2
SMILES: CCCCCCCCCCCCCCCC(=O)N[C@@H](CCC(=O)NCCCC[C@H](NC(=O)[C@H](C)NC(=O)[C@H](C)NC(=O)[C@H](CCCCN)NC(=O)[C@H](CO)NC(=O)[C@H](CC(=O)O)NC(=O)[C@H](CC(C)C)NC(=O)[C@H](Cc1ccc(O)cc1)NC(=O)[C@H](CCCCN)NC(=O)[C@H](CO)NC(=O)[C@H](Cc1ccc(O)cc1)NC(=O)[C@H](CC(=O)O)NC(=O)[C@H](CO)NC(=O)[C@@H](NC(=O)[C@H](Cc1ccccc1)NC(=O)[C@@H](NC(=O)CNC(=O)[C@H](CCC(N)=O)NC(=O)[C@H](CO)NC(=O)[C@@H](N)Cc1c[nH]cn1)[C@@H](C)O)[C@@H](C)O)C(=O)N[C@@H](CC(=O)O)C(=O)N[C@@H](Cc1ccccc1)C(=O)N[C@H](C(=O)N[C@@H](CCC(=O)O)C(=O)N[C@@H](Cc1c[nH]c2ccccc12)C(=O)N[C@@H](CC(C)C)C(=O)N[C@@H](CC(C)C)C(=O)N[C@@H](CCCNC(=N)N)C(=O)N[C@@H](C)C(N)=O)C(C)C)C(=O)O
EC50 (nM) GuR; cAMP content, HEK293 cells expressing the human glucagon receptor [1]: 0.04 nM

B11: Compound 253 (peptide)
peptide: H-HSQGTFTSDYSRYLDSRRAQDFVWLLNT-NH2
EC50 (nM) GLP-1R; cAMP content, HEK293 cells expressing human GLP-1R [2]: 0.2 nM

B12: Compound 244 (peptide)
peptide: H-HSQGTFTSDYSKYLDSRHAQDFVWLMNT-NH2
EC50 (nM) GuR; cAMP content, HEK293 cells expressing the human glucagon receptor [1]: 0.05 nM
EC50 (nM) GLP-1R; cAMP content, HEK293 cells expressing human GLP-1R [2]: 0.5 nM

B13: Compound 243 (peptide)
peptide: H-HSQGTFTSDYSKYLDSERAQDFVWLMNT-NH2
EC50 (nM) GuR; cAMP content, HEK293 cells expressing the human glucagon receptor [1]: 0.06 nM

B14: Compound 250 (peptide)
peptide: H-HSQGTFTSDYSKYLDSRRAQDFVWLKRA-NH2
EC50 (nM) GLP-1R; cAMP content, HEK293 cells expressing human GLP-1R [2]: 0.3 nM

B15: Compound 252 (peptide)
peptide: H-HSQGTFTSDYSRYLDSRRAKDFVWLLNT-NH2
EC50 (nM) GuR; cAMP content, HEK293 cells expressing the human glucagon receptor [1]: 0.3 nM
EC50 (nM) GLP-1R; cAMP content, HEK293 cells expressing human GLP-1R [2]: 0.5 nM

B16: Compound 246 (peptide)
peptide: H-HSQGTFTSDYSKYLDSRAAQDFVWLMNT-NH2
EC50 (nM) GuR; cAMP content, HEK293 cells expressing the human glucagon receptor [1]: 0.05 nM
EC50 (nM) GLP-1R; cAMP content, HEK293 cells expressing human GLP-1R [2]: 0.3 nM

B17: Compound 255 (peptide)
peptide: H-HSQGTFTSDYSKYLDSALAQDFVWLLNT-NH2
EC50 (nM) GLP-1R; cAMP content, HEK293 cells expressing human GLP-1R [2]: 0.24 nM
